Where no end group is shown, it is not given here.
T1: human BKB2R-derived epitope peptide (SEQ ID NO:73), PEG-biotin (human, also: PEG-biotin, site not given here)
T1 construct: also called immunogenic human BKB2R peptide fragment
T1 peptide: KEYSDEGHNVTAC


Tests used:
[1] = target: T1, human BKB2R-derived epitope peptide …; assay: BLI (Octet), peptide-PEG-biotin on streptavidin sensor, antibody 500 nM
Method: (§1) For the Octet study, antibodies were analyzed by kinetic titration of the antibodies. Antibodies were prepared in kinetic buffer (0.001 M phosphate buffered saline (NaCl 0.0138 M; KCl-0.00027 M); pH 7.4, at 25° C., 0.1 mg/ml BSA, 0.002% Tween and 0.005% Sodium Azide) followed by 1:2 serial dilutions.
(§2) Sensor Prep: Streptavidin biosensors (FortéBio Inc, Menlo Park, Calif.) were coated by incubation in a solution containing a peptide ([…]-PEG-biotin) (Biosyn, Lewisville, Tex.) at 50 μg/ml (300 seconds/1000 rpm shaking). 96 well half-volume plates were used for testing. 90 μl of sample was plated per well. Sensors were allowed to equilibrate to baseline in kinetic buffer (60 seconds/1000 rpm). The sensors were then placed into the various antibody dilutions to allow binding (association) to the probe for 500 seconds/1000 rpm, and measurements were taken. The sensors were then moved into kinetic buffer without antibody for dissociation (500 seconds/1000 rpm), and measurements were taken. Octet system software calculated kinetic constants for on rate/off rate/affinity.
For test humanized monoclonal antibodies, the highest concentration used was 500 nM followed by 1:2 dilutions. Each concentration was tested twice. The HC and LC represented the mouse original 5F12G1 VH and VL sequences.

[2] = target: T2, human BKB2R-derived epitope peptide, SE ID NO:73 (Homo sapiens, UniProt P30411); assay: ForteBio Octet binding kinetics to the BKB2R epitope peptide; details: for kdis / kon: Conc. 500 nM; for binding compared with the original mouse monoclonal antibody: Octet, epitope peptide
T2 construct: purchased Biosyn, Lewisville, Tex
Method: Proteins corresponding to all combinations of humanized or chimeric (5F12G1 VH and VL on human IgG2 backbone) antibodies were tested for binding to the human BKB2R-derived epitope peptide, SE ID NO:73.
A ForteBio (Menlo Park, Calif., USA) Octet® platform was used to analyze the binding affinities and binding characteristics of the humanized monoclonal antibodies to the peptide epitope (SEQ ID NO:73) and compared to the original mouse monoclonal 5F12G1. This platform employed label-free technology for measuring biomolecular interactions by optical analysis of the interference pattern of white light reflected from two surfaces: a layer of immobilized protein on the biosensor tip, and an internal reference layer. Any change in the number of molecules bound to the biosensor tip caused a shift in the interference pattern that was measured in real-time. Binding specificity, and rates of association and dissociation were monitored.
as §1, §2
[…] […] Each concentration was tested twice. The HC and LC represented the mouse original 5F12G1 VH and VL sequences.

Kd [1]	Max Response [1]	koff [1]	kon [1]	Molecule	kdis [2]	kon [2]	binding compared with the original mouse monoclonal antibody [2]
758 nM	0.12	1.18 s⁻¹	1.55e+06 M⁻¹ s⁻¹	humanized anti-BKB2R antibody H37/L37 (antibody, human IgG2, kappa, V domains shown) VH: EVQLVESGGGLVQPGGSLRLSCAASGFTFSDYWMDWVRQAPGKGLEWVGEIRLKSDNYATHYAASVKGRFTISRDDSKNSLYLQMNSLKTEDTAVYYCTRDYYAMEYWGQGTTVTVSS VL: DIVMTQTPLSLSVTPGQPASISCKSSQTIVHSNGKTYLYWYLQKPGQSPQLLIYKVSSRFSGVPDRFSGSGSGTDFTLKISRVEAEDVGVYYCFQASHVPYTFGQGTKLEIKR			
				H39/L37: humanized anti-BKB2R mAb, heavy chain H39 (SEQ ID NO:7), light chain L37 (SEQ ID NO:10) (antibody, V domains shown, Humanized H39 Heavy Chain Variable Region VH; Humanized L37 Light Chain Variable Region VL) VH: EVKLVESGGGLVQPGGSLRLSCAVSGFTFSDYWMDWVRQAPGKGLEWVAEIRLKSDNYATHYAASVKGRFTISRDDSKSRLYLQMNSLKTEDTAVYYCTRDYYAMEYWGQGTTVTVSS VL: DIVMTQTPLSLSVTPGQPASISCKSSQTIVHSNGKTYLYWYLQKPGQSPQLLIYKVSSRFSGVPDRFSGSGSGTDFTLKISRVEAEDVGVYYCFQASHVPYTFGQGTKLEIK	0.0288 s⁻¹	1.23e+06 M⁻¹ s⁻¹	stronger binding (lower KD)
93.2 nM	0.0681	106 s⁻¹	1.14e+09 M⁻¹ s⁻¹	humanized anti-BKB2R antibody H38/L39 (antibody, human IgG2, kappa, V domains shown) VH: EVQLLESGGGLVQPGGSLKLSCAVSGFTFSDYWMSWVRQAPGKGLEWVSEIRLKSDNYATHYADSVKGRFTISRDDSKNTLYLQMNSLRAEDTAVYYCTRDYYAMEYWGQGTLVTVSS VL: DVVMTQTPLSLSVTPGQPASISCKSSQTIVHSNGKTYLEWYLQKPGQSPQLLIYKVSNRFSGVPDRFSGSGSGTDFTLKISRVEAEDVGVYYCFQASHVPYTFGQGTKLEIKR			
2.49 nM	0.132	0.00763 s⁻¹	3.06e+06 M⁻¹ s⁻¹	humanized anti-BKB2R antibody H38/L38 (antibody, human IgG2, kappa, V domains shown) VH: EVQLLESGGGLVQPGGSLKLSCAVSGFTFSDYWMSWVRQAPGKGLEWVSEIRLKSDNYATHYADSVKGRFTISRDDSKNTLYLQMNSLRAEDTAVYYCTRDYYAMEYWGQGTLVTVSS VL: DIVMTQTPLSLPVTSGEPASISCRSSQTIVHSNGKTYLDWYLQKPGQSPQLLIYKVSNRASGVPDRFSGSGSGTDFTLKISRVEAEDVGVYYCFQASHVPYTFGGGTKVEIKR			
761 nM	0.143	4.9 s⁻¹	6.44e+06 M⁻¹ s⁻¹	humanized anti-BKB2R antibody H39/L38 (antibody, human IgG2, kappa, V domains shown) VH: EVKLVESGGGLVQPGGSLRLSCAVSGFTFSDYWMDWVRQAPGKGLEWVAEIRLKSDNYATHYAASVKGRFTISRDDSKSRLYLQMNSLKTEDTAVYYCTRDYYAMEYWGQGTTVTVSS VL: DIVMTQTPLSLPVTSGEPASISCRSSQTIVHSNGKTYLDWYLQKPGQSPQLLIYKVSNRASGVPDRFSGSGSGTDFTLKISRVEAEDVGVYYCFQASHVPYTFGGGTKVEIKR			
				H38/L38: humanized anti-BKB2R mAb, heavy chain H38 (SEQ ID NO:6), light chain L38 (SEQ ID NO:11) (antibody, V domains shown, Humanized H38 Heavy Chain Variable Region VH; Humanized L38 Light Chain Variable Region VL) VH: EVQLLESGGGLVQPGGSLKLSCAVSGFTFSDYWMSWVRQAPGKGLEWVSEIRLKSDNYATHYADSVKGRFTISRDDSKNTLYLQMNSLRAEDTAVYYCTRDYYAMEYWGQGTLVTVSS VL: DIVMTQTPLSLPVTSGEPASISCRSSQTIVHSNGKTYLDWYLQKPGQSPQLLIYKVSNRASGVPDRFSGSGSGTDFTLKISRVEAEDVGVYYCFQASHVPYTFGGGTKVEIK	0.00763 s⁻¹	3.06e+06 M⁻¹ s⁻¹	stronger binding (lower KD)
3110 nM	0.577	29.4 s⁻¹	9.44e+06 M⁻¹ s⁻¹	humanized anti-BKB2R antibody H38/L37 (antibody, human IgG2, kappa, V domains shown) VH: EVQLLESGGGLVQPGGSLKLSCAVSGFTFSDYWMSWVRQAPGKGLEWVSEIRLKSDNYATHYADSVKGRFTISRDDSKNTLYLQMNSLRAEDTAVYYCTRDYYAMEYWGQGTLVTVSS VL: DIVMTQTPLSLSVTPGQPASISCKSSQTIVHSNGKTYLYWYLQKPGQSPQLLIYKVSSRFSGVPDRFSGSGSGTDFTLKISRVEAEDVGVYYCFQASHVPYTFGQGTKLEIKR			
220 nM	0.173	2.08 s⁻¹	9.47e+06 M⁻¹ s⁻¹	humanized anti-BKB2R antibody H37/L38 (antibody, human IgG2, kappa, V domains shown) VH: EVQLVESGGGLVQPGGSLRLSCAASGFTFSDYWMDWVRQAPGKGLEWVGEIRLKSDNYATHYAASVKGRFTISRDDSKNSLYLQMNSLKTEDTAVYYCTRDYYAMEYWGQGTTVTVSS VL: DIVMTQTPLSLPVTSGEPASISCRSSQTIVHSNGKTYLDWYLQKPGQSPQLLIYKVSNRASGVPDRFSGSGSGTDFTLKISRVEAEDVGVYYCFQASHVPYTFGGGTKVEIKR			
1230 nM	0.121	1.98 s⁻¹	1.11e+06 M⁻¹ s⁻¹	humanized anti-BKB2R antibody H37/L39 (antibody, human IgG2, kappa, V domains shown) VH: EVQLVESGGGLVQPGGSLRLSCAASGFTFSDYWMDWVRQAPGKGLEWVGEIRLKSDNYATHYAASVKGRFTISRDDSKNSLYLQMNSLKTEDTAVYYCTRDYYAMEYWGQGTTVTVSS VL: DVVMTQTPLSLSVTPGQPASISCKSSQTIVHSNGKTYLEWYLQKPGQSPQLLIYKVSNRFSGVPDRFSGSGSGTDFTLKISRVEAEDVGVYYCFQASHVPYTFGQGTKLEIKR			
23.4 nM	0.119	0.0288 s⁻¹	1.23e+06 M⁻¹ s⁻¹	humanized anti-BKB2R antibody H39/L37 (antibody, human IgG2, kappa, V domains shown) VH: EVKLVESGGGLVQPGGSLRLSCAVSGFTFSDYWMDWVRQAPGKGLEWVAEIRLKSDNYATHYAASVKGRFTISRDDSKSRLYLQMNSLKTEDTAVYYCTRDYYAMEYWGQGTTVTVSS VL: DIVMTQTPLSLSVTPGQPASISCKSSQTIVHSNGKTYLYWYLQKPGQSPQLLIYKVSSRFSGVPDRFSGSGSGTDFTLKISRVEAEDVGVYYCFQASHVPYTFGQGTKLEIKR			
1730 nM	0.0915	1.26 s⁻¹	729000 M⁻¹ s⁻¹	humanized anti-BKB2R antibody H39/L39 (antibody, human IgG2, kappa, V domains shown) VH: EVKLVESGGGLVQPGGSLRLSCAVSGFTFSDYWMDWVRQAPGKGLEWVAEIRLKSDNYATHYAASVKGRFTISRDDSKSRLYLQMNSLKTEDTAVYYCTRDYYAMEYWGQGTTVTVSS VL: DVVMTQTPLSLSVTPGQPASISCKSSQTIVHSNGKTYLEWYLQKPGQSPQLLIYKVSNRFSGVPDRFSGSGSGTDFTLKISRVEAEDVGVYYCFQASHVPYTFGQGTKLEIKR			
